Measured values reported in the Immune Epitope Database (IEDB).
pIC50: −log10 of the molar value.

What was measured:
Experiment in all cases: IEDB peptide-MHC binding, purified MHC/competitive/radioactivity; ≥ and ≤ were set here for values at or beyond the usual limits of such assays
HLA-A*02:01 = biological target: HLA-A*02:01
HLA-A*02:02 = biological target: HLA-A*02:02
HLA-A*02:06 = biological target: HLA-A*02:06
HLA-A*02:03 = biological target: HLA-A*02:03
HLA-A*68:02 = biological target: HLA-A*68:02
[1] = source organism: Vaccinia virus WR
[2] = source organism: Mammarenavirus brazilense
[3] = source organism: Influenza A virus
[4] = source organism: Mammarenavirus whitewaterense
[5] = source organism: Mammarenavirus lassaense

Sequence	pIC50 (HLA-A*02:01; [1])	pIC50 (HLA-A*02:02; [1])	pIC50 (HLA-A*02:06; [1])	pIC50 (HLA-A*02:03; [1])	pIC50 (HLA-A*68:02; [1])	also measured
ELTTVFIKYV	5.59	5.55	6.33	6.14	7.09	–
FVSTMPVET	6.08	5.92	5.81	6.41	6.49	–
AVIPFDDIV	6.04	6.50	7.38	6.62	6.04	–
FTILEYLYIM	7.02	6.45	7.40	5.49	5.66	–
AVANCVRNL	5.92	7.18	5.86	6.94	5.87	–
LLLEWLAEV	–	–	–	–	–	pIC50 (HLA-A*02:01; source organism: SARS-CoV1): 9.66; pIC50 (HLA-A*02:02; source organism: SARS-CoV1): 9.96; pIC50 (HLA-A*02:06; source organism: SARS-CoV1): 9.96; pIC50 (HLA-A*02:03; source organism: SARS-CoV1): 9.20; pIC50 (HLA-A*68:02; source organism: SARS-CoV1): 6.47
IVILFIMFM	6.24	5.73	6.13	5.77	6.18	–
NASKFVYVSV	6.00	5.34	6.08	8.07	7.00	–
DVSLSAYII	5.82	6.16	5.36	6.12	6.23	–
HSLPRCWLV	–	–	–	–	–	pIC50 (HLA-A*02:01; [2]): 5.67; pIC50 (HLA-A*02:02; [2]): 6.18; pIC50 (HLA-A*02:06; [2]): 6.49; pIC50 (HLA-A*02:03; [2]): 6.83; pIC50 (HLA-A*68:02; [2]): 6.18
KVYLSTFNM	6.27	6.32	6.58	6.10	5.74	–
FVDTMSIYIA	5.79	6.81	5.96	5.62	6.64	–
CVDHPFIYV	6.26	6.52	6.83	5.85	8.29	–
SCINRCFYV	–	–	–	–	–	pIC50 (HLA-A*02:01; [3]): 6.53; pIC50 (HLA-A*02:02; [3]): 6.09; pIC50 (HLA-A*02:06; [3]): 6.65; pIC50 (HLA-A*02:03; [3]): 6.02; pIC50 (HLA-A*68:02; [3]): 5.97
CIVQSVLRDI	5.93	6.66	6.07	6.80	5.46	–
EMVEYLENQL	6.31	6.67	6.38	6.68	5.78	–
YCNYTKFWYV	–	–	–	–	–	pIC50 (HLA-A*02:01; [4]): 7.12; pIC50 (HLA-A*02:02; [4]): 6.49; pIC50 (HLA-A*02:06; [4]): 8.19; pIC50 (HLA-A*02:03; [4]): 6.99; pIC50 (HLA-A*68:02; [4]): 6.31
PTSETMYLTM	6.28	6.06	6.04	6.72	5.38	–

Sequence	pIC50 (HLA-A*02:01; [1])	pIC50 (HLA-A*02:02; [1])	pIC50 (HLA-A*02:06; [1])	pIC50 (HLA-A*02:03; [1])	pIC50 (HLA-A*68:02; [1])	also measured
LIVILFIMFM	6.86	7.07	6.92	6.36	7.22	–
NILMDSIFV	6.75	6.60	6.77	6.65	6.83	–
FIMRNFLRSI	9.33	7.55	9.35	9.92	6.88	–
TISGNIYSA	6.68	7.07	6.75	7.72	7.96	–
RIASILSLET	6.01	6.23	6.12	6.35	6.35	–
IVVPVIDRL	6.62	6.84	7.51	6.65	7.46	–
LMANLAPHLL	–	–	–	–	–	pIC50 (HLA-A*02:01; source organism: SARS-CoV1): 7.52; pIC50 (HLA-A*02:02; source organism: SARS-CoV1): 9.64; pIC50 (HLA-A*02:06; source organism: SARS-CoV1): 6.94; pIC50 (HLA-A*02:03; source organism: SARS-CoV1): 8.82; pIC50 (HLA-A*68:02; source organism: SARS-CoV1): 5.93
TTIGTIAGGV	6.01	6.13	7.08	7.37	9.70	–
IMSIGFEARI	5.80	6.15	5.80	5.82	7.21	–
SIINHKFCNL	–	–	–	–	–	pIC50 (HLA-A*02:01; [5]): 5.67; pIC50 (HLA-A*02:02; [5]): 6.61; pIC50 (HLA-A*02:06; [5]): 5.99; pIC50 (HLA-A*02:03; [5]): 6.25; pIC50 (HLA-A*68:02; [5]): 6.04
GTSAAAYFV	–	–	–	–	–	pIC50 (HLA-A*02:01; source organism: SARS-CoV1): 6.75; pIC50 (HLA-A*02:02; source organism: SARS-CoV1): 7.46; pIC50 (HLA-A*02:06; source organism: SARS-CoV1): 7.04; pIC50 (HLA-A*02:03; source organism: SARS-CoV1): 6.69; pIC50 (HLA-A*68:02; source organism: SARS-CoV1): 7.85
FTKDGKLDDT	6.01	6.84	6.05	6.73	5.39	–
EVERLMELPV	5.70	5.61	5.44	5.84	5.91	–
IVAAVIIMAI	5.35	6.14	5.35	5.58	7.02	–
KLFTHDIML	8.85	9.00	8.33	8.52	6.11	–
LLLWISVKV	–	–	–	–	–	pIC50 (HLA-A*02:01; source organism: SARS-CoV1): 7.89; pIC50 (HLA-A*02:02; source organism: SARS-CoV1): 7.03; pIC50 (HLA-A*02:06; source organism: SARS-CoV1): 8.00; pIC50 (HLA-A*02:03; source organism: SARS-CoV1): 6.70; pIC50 (HLA-A*68:02; source organism: SARS-CoV1): 5.56
FVDGVPFVV	–	–	–	–	–	pIC50 (HLA-A*02:01; source organism: SARS-CoV1): 9.01; pIC50 (HLA-A*02:02; source organism: SARS-CoV1): 8.02; pIC50 (HLA-A*02:06; source organism: SARS-CoV1): 9.04; pIC50 (HLA-A*02:03; source organism: SARS-CoV1): 7.07; pIC50 (HLA-A*68:02; source organism: SARS-CoV1): 6.77
